Results reported in PMC10536834, “Elucidating the Role of a Calcium-Binding Loop in an x-Prolyl Aminodipeptidase from Lb. helveticus” (ACS Omega, 2023).

Substrate: NCC(=O)N1CCC[C@H]1C(=O)Nc1ccc([N+](=O)[O-])cc1
Experiment: purified protein
Type: biochemical, Lactobacillus helveticus
Conditions: 50 mM MES pH 6.5, 40 °C, 200 nM enzyme, 75-500 μM substrate

Row | Protein | Km
1 | PepX (x-prolyl aminodipeptidase) from Lactobacillus helveticus (Lactobacillus helveticus) (protein, recombinant, N-terminal six-histidine tag, pET14b, E. coli BL21(DE3)pLysS; PepX known to form dimers) MKYNQYAYVETDFQQQVKELIDINFLPKNYQVWDFSSLLAKLVKNAIAEAKTDAAKNAKLAEFAVSDHQTLADFLKEKPTEIGTKQFYNVALQLLGYHVHYDYDFADPTGFMQRNALPFLQDISDNQKLISAFYRLLNTRAKNGQILLDVMAGKGYFTQFWGQNKFKFFNGKSIPVFDTNKVIREVVYVETDLDTDHDGKSDLIQVTVFRPEETNKGLKVPALYTASPYFGGIIANEKRNHNVDENLSDSTEWNDPQYVHSPIVKAEKPDGSSRPATEEAVHKSSYPLNEYMLARGFASVFAGAIGTRGSDGVRITGAPEETESAAAVIEWLHGDRVAYTDRTRTVQTTADWCNGNIGMTGRSYLGTLQIAIATTGVKGLKTVVSEAAISSWYDYYREHGLVIAPEACQGEDLDLLAETCQSNLWDAGSYLKIKPEYDKMQKQLREKEDRNTGQYSDFWEARNYRHHADGIKCSWISVHGLNDWNVKPKNVYKIWQLVKKMPMKHHLFLHQGPHYNMNNLVSIDFTDLMNLWFVHELLGIENNAYNQWPTVMIQDNLQADKWHEEPDWSNDLGQEKIYYPTDEGELFQDGNGKAQKSFTDVGGIEFKKAGISESDWQYKFICGDEKWAKPSLRFETDEFTHPTTIVGRPEVKVRVSASLPKGEISVALVELGERQRLTATPKFLMHGGQELGYRFGTDTLQEFVPDKKTKAKLITKAHMNLQNFKDMKKPEAIDADKFYDLDFLLQPTYYTIPSGSKLALIIYSTDQGMTKRPLEDETYTIDLANTEIKFYEK | 302 µM
2 | PepX (x-prolyl aminodipeptidase) from Lactobacillus helveticus (Lactobacillus helveticus; D196A) (protein, recombinant, N-terminal six-histidine tag, pET14b, E. coli BL21(DE3)pLysS; PepX known to form dimers) MKYNQYAYVETDFQQQVKELIDINFLPKNYQVWDFSSLLAKLVKNAIAEAKTDAAKNAKLAEFAVSDHQTLADFLKEKPTEIGTKQFYNVALQLLGYHVHYDYDFADPTGFMQRNALPFLQDISDNQKLISAFYRLLNTRAKNGQILLDVMAGKGYFTQFWGQNKFKFFNGKSIPVFDTNKVIREVVYVETDLDTAHDGKSDLIQVTVFRPEETNKGLKVPALYTASPYFGGIIANEKRNHNVDENLSDSTEWNDPQYVHSPIVKAEKPDGSSRPATEEAVHKSSYPLNEYMLARGFASVFAGAIGTRGSDGVRITGAPEETESAAAVIEWLHGDRVAYTDRTRTVQTTADWCNGNIGMTGRSYLGTLQIAIATTGVKGLKTVVSEAAISSWYDYYREHGLVIAPEACQGEDLDLLAETCQSNLWDAGSYLKIKPEYDKMQKQLREKEDRNTGQYSDFWEARNYRHHADGIKCSWISVHGLNDWNVKPKNVYKIWQLVKKMPMKHHLFLHQGPHYNMNNLVSIDFTDLMNLWFVHELLGIENNAYNQWPTVMIQDNLQADKWHEEPDWSNDLGQEKIYYPTDEGELFQDGNGKAQKSFTDVGGIEFKKAGISESDWQYKFICGDEKWAKPSLRFETDEFTHPTTIVGRPEVKVRVSASLPKGEISVALVELGERQRLTATPKFLMHGGQELGYRFGTDTLQEFVPDKKTKAKLITKAHMNLQNFKDMKKPEAIDADKFYDLDFLLQPTYYTIPSGSKLALIIYSTDQGMTKRPLEDETYTIDLANTEIKFYEK | 315 µM
